Source: FireProtDB (doi:10.1046/j.1432-1327.1999.00918.x)

Conditions: Homo sapiens; pH 2.7; Thermal; DSC; glycine 0.05 M; reversible: yes; whole UniProt chain shown

B1: Lysozyme C wild type, P61626 (protein)
chain: MKALIVLGLVLLSVTVQGKVFERCELARTLKRLGMDGYRGISLANWMCLAKWESGYNTRATNYNAGDRSTDYGIFQINSRYWCNDGKTPGAVNACHLSCSALLQDNIADAVACAKRVVRDPQGIRAWVAWRNRCQNRDVRQYVQGCGV
For B1, the Tm was 64.9 °C, the “heat capacity change of unfolding” value was 1.55 kcal/mol/K and the “unfolding enthalpy (calorimetric)” value was 114 kcal/mol.
